Assay results published in US20110059093A1 (Hoffmann-La Roche, published 2011).
Where a chain is given by its changes, count along the chain named. Square brackets hold non-standard residues; d marks the D form. Ends that are not written are not given here. pS = N[C@@H](COP(=O)(O)O)C(=O)O

T1: phosphorylated MCAK fragment Ile-Gln-Lys-Gln-Lys-Arg-Arg-Ser(PO3H2)-Val-Asn-Ser-Lys-Ile-Pro-Ala (SEQ ID NO:17) (human, also: Glu(biotinyl-PEG) coupled to the peptide, site not given here)
T1 construct: Fragment of human mitotic centromere-associated kinesin (KIF2C, UniProt Q99661 printed); biotinylated control peptide; also called MCAK phosphopeptide
T1 peptide: IQKQKRR[pS]VNSKIPA

T2: phosphorylated Tau fragment Ser-Ile-Asp-Met-Val-Asp-Ser(PO3H2)-Pro-Gln-Leu-Ala-Thr-Leu-Ala-Asp (SEQ ID NO:9) (human, also: biotin attached through 1x epsilon-lysine and 4x beta-alanine, site not given here)
T2 construct: also called Tau (416-430)[pS422]; Tau phosphopeptide
T2 peptide: SIDMVD[pS]PQLATLAD

T3: Tau fragment Ser-Ile-Asp-Met-Val-Asp-Ser-Pro-Gln-Leu-Ala-Thr-Leu-Ala-Asp (SEQ ID NO:10) (human, also: biotinylated, site not given here)
T3 construct: Biotinylated control peptide on streptavidin plates; also called nonphosphorylated Tau fragment; non-phosphorylated Tau (416-430)
T3 peptide: SIDMVDSPQLATLAD

B1: Mab2.10.3 (anti-Tau pS422 antibody) (antibody, IgG1, V domains shown)
VH: EVQLVESGGDLVRPGGSLKLSCAASGFTFRTYGMSWVRQTADKRLEWVATISSGGTYTYYADNVRERFTISRDNARDTLYLQMSRLESDDTAMYYCTRRYGYDGGGSFDVWGAGTRVTVSS
VL: EIVMTQAAPSVPVTPGESASISCRSNKSLLHSNGNTYLCWFLQRPGQSPQLLIYRMSTLAPGVPDRFSGSGSGTAFTLRISRLEAEDVGVYYCMQHIEYPLTFGAGTKLELK
notes: Mouse monoclonal antibody purified from hybridoma supernatant; also called clone 2.10.3; Tau_2.10.3
B2: anti-Tau pS422 antibody Mab 097 (antibody, V domains shown)
VH: QSVEESGGRLVTPGTPLTLTCTVSGIDLSSYSITWVRQAPGKGLEYIGFIGTGGSTYYASWAKGRFTISRTSTTVDLKITSPTTEDTATYFCARGGDLWGPGTLVTVSS
VL: QVLTQTASSVSAAVGGTVTINCQSSQNVYNNNKLAWFQQKPGQPPKRLIYGASTLASGVSSRFKGSGSGTQFTLTISDLECDDAATYYCLGGYSGNIYTFGGGTEVVVK
notes: Rabbit monoclonal antibody, recombinantly expressed in HEK293 with rabbit kappa and gamma constant regions
B3: anti-Tau pS422 antibody Mab 085 (antibody, V domains shown)
VH: QSVEESGGRLVTPGTPLTLTCTVSGLSLSSNAINWVRQAPGKGLEWIGYIAVSGNTYYASWAKGRFTISKASTTVDLKMTSPTAEDTGTYFCGKSNIWGPGTLVTVSL
VL: QVLTQTASPVSAAVGITVTISCQSSQSVRTNKLAWFQQKPGQPPKRLIYSASTLDSGVPSRFSASGSGTQFTLTISDVQCDDAATYYCLGYYDCSIADCVAFGGGTEVVVK
notes: as for B2
B4: anti-Tau pS422 antibody Mab 086 (antibody, V domains shown)
VH: B3 VH with L26F
VL: B3 VL with A7T, I16S, S56F, Y92F
notes: as for B2
B5: anti-Tau pS422 antibody Mab 005 (antibody, V domains shown)
VH: QSVEESGGRLVTPGTPLTLTCTVSGLSLSSNAINWVRQAPGKGLEWIGYISTSGNTYYASWAKGRFTISKTSTTVDLKITSPTTEDTATYFCGRGDLWGPGTLVTVSS
VL: QVLTQTASPVSAAVGSTVTINCQASQSVYKNNYLAWFQQKPGQPPKRLIYSASTLASGVSSRFKGSGSGTQFTLTISDVQCDDAATYYCLGSCDSSSNNCVAFGGGTEVVVK
notes: as for B2
B6: anti-Tau pS422 antibody Mab 020 (antibody, V domains shown)
VH: QSVEESGGRLVTPGTPLTLTCKVSGFSLSSYDMNWVRQAPGKGLEWVGAISTGGNTYYASWAKGRFTISKTSTTVTLTITSPTTADTATYFCARGSSIWGPGTLVTVSL
VL: B5 VL with A35R, F37Y, S51T, S92G, C93Y, S95C, S96N, N98A, N99D, V101W
notes: as for B2
B7: anti-Tau pS422 antibody Mab 019 (antibody, V domains shown)
VH: QSVEESGGRLVTPGTPLTLTCTVSGIDLSSYTMNWVRQAPGKGLDWIGFINSGGYTSYASWTRGRFTISKTSTTVDLRITSPTTEDTATYFCARYGGGSGFDLWGPGTLVTVSS
VL: QVLTQTASSVSAAVGGTVTINCQSSQSVYNNRLAWYQQKPGQPPKLLIYKASTLASGVPSRFKGSGSGTQFTLTISDLECDDAATYYCAGGYINIFAFGGGTEVVVK
notes: as for B2

Target: T1, phosphorylated MCAK fragment …
Assay: ELISA, biotinylated peptide on streptavidin plate
Procedure: Peptides representing the Tau pS422 sequence 416-430 (phosphorylated and non phosphorylated) and MCAK_Human (88-102)[95-pSer] were synthesized and biotinylated to allow the coating to a streptavidin labeled microtiter plate. To test for maximal binding of Tau phosphopeptide to the assay plates, different concentrations of Tau phosphopeptide ranging from 1 ng/ml to 2000 ng/ml were used for coating. Finally 50 ng/ml Tau phosphopeptide was used for coating for 60 min at room temperature. Anti Tau pS422 antibodies 2.10.3., 2.20.4. and 5.6.11 were incubated in the peptide labeled microtiter plates for 60 min in concentrations up to 1000 ng/ml. After washing, the binding of the antibodies was detected using an anti-mouse—IgG Fc antibody which was POD-labeled. After incubation with ABTS® for 20 min at room temperature absorbance (O.D.) at 405 nm-492 nm was measured. The antibody binding was determined by EC₅₀. Typical EC₅₀ value could be determined in the range of 100 ng/ml for 2.10.3., 8 ng/ml for 2.20.4. and 1 ng/ml for 5.6.11. The nonphosphorylated Tau fragment and (MCAK_Human (88-102)[95-pSer]) were used as controls. No binding of the control peptides could be observed. Typical back-ground values were around 30 mE (Table 1), which is about 1% of the maximal value measured with phosphorylated Tau fragment. […]

Binder | binding result
B1 | no binding (tested: up to 1000 ng/ml)

What follows are binders tested against T4, KLH (key hole limpet hemocyanine) (assay: ELISA, single point, KLH coated).
T4 construct: Control antigen coated at 1 µg/ml
Procedure: (§1) Rabbit monoclonal antibodies were recombinantly expressed in HEK 293 cells. Cell culture supernatants or purified rabbit antibodies were tested for binding to biotinylated Tau (416-430)[pS422], non-phosphorylated Tau (416-430), KLH (key hole limpet hemocyanine) and the unrelated phospho-peptide MCAK_Human (88-102)[95-pSer] by ELISA. For the preparation of ELISA plates, streptavidine pre-coated microtiter plates were incubated with biotinylated Tau ([…])[pS422] at 50 ng/ml for 1 hour at room temperature. Coating with KLH or control peptides was performed at 1 μg/ml. Rabbit Anti Tau pS422 antibody (Abcam AB51071) or rabbit antibody containing supernatants were incubated in the antigen labeled microtiter plates for 60 min at various concentrations. After intensive washing, the binding of the rabbit antibodies was detected using a sheep anti-rabbit IgG digoxigenin conjugated detection antibody (Chemicon AQ301D). After incubation with TMB at room temperature absorbance at 370 nm-492 nm was measured. The antibody binding was characterized by its EC50 values. The antibody binding to biotinylated Tau (416-430)[pS422] and non-phosphorylated Tau (416-430) peptides was characterized by its EC50 values. Cross-reactivity with KLH or MCAK phosphopeptide was estimated by single-point measurement at high concentrations, i.e. at 1:5 dilution of the cell culture supernatants. […] Binding to KLH and MCAK control phosphopeptide was at background level with all antibodies, which is about […] of the maximal value measures with Tau phosphopeptide.

Binder | OD 1:5 dilution of supernatant
B2 | 0.042 mE
B3 | 0.029 mE
B4 | 0.046 mE
B5 | 0.026 mE
B6 | 0.016 mE
B7 | 0.026 mE

Target: T2, phosphorylated Tau fragment …
Assay: ELISA, ratio of EC50 values on the two peptides

Binder | selectivity compared to non-phosphorylated Tau peptide
B2 | ≥ 100 fold
B3 | ≥ 100 fold
B4 | ≥ 100 fold
B5 | ≥ 100 fold
B7 | ≥ 100 fold

Target: T1, phosphorylated MCAK fragment …
Assay: ELISA, single point, MCAK phosphopeptide coated
Procedure: as §1

Binder | OD 1:5 dilution of supernatant
B2 | 0.029 mE
B3 | 0.062 mE
B4 | 0.104 mE
B5 | 0.067 mE
B6 | 0.01 mE
B7 | 0.023 mE

Target: T3, Tau fragment …
Assay: ELISA, biotinylated peptide on streptavidin plate, anti-rabbit IgG detection
Procedure: as §1

Binder | EC50
B2 | 1.28 µg/mL
B3 | 0.146 µg/mL
B4 | 0.266 µg/mL
B5 | 3.73 µg/mL
B7 | 1.08 µg/mL

Target: T2, phosphorylated Tau fragment …
Assay: as above
Procedure: as §1

Binder | EC50
B2 | 0.0013 µg/mL
B3 | 0.0009 µg/mL
B4 | 0.0011 µg/mL
B5 | < 0.003 µg/mL
B7 | < 0.003 µg/mL
